Patent CN116744966A (WISTAR INST; WEINER DAVID; MUTHUMANI KARTHIK; PARZACCHI …, dated 2023)

How the values were obtained:
[1] = target: SARS-CoV-2 spike protein (wild type) on pseudovirus (SARS-CoV-2, UniProt P0DTC2 14-1273); test: cell-based or functional assay
[2] = target: recombinant SARS-CoV-2-RBD (Sino Biological) (SARS-CoV-2, UniProt P0DTC2 319-541)

B1: WCoVA9 (antibody, V domains shown)
VH: EVQLQQSGAELVKPGASVKLSCTASGFNIKDTYMHWVKQRPEQGLEWIGRIDPANGNTKYDPKFQAKATITANTSSNTAYLHLSSLTSEDTAVYYCAPYYDYVGAMDYWGQGTSVTVSS
VL: DIQMTQSPASQSASLGESVTITCLASQTIGTWLAWYQQKPGKSPQLLIYAATSLADGVPSRFSGSGSGTKFSFKISSLQAEDFVSYYCQQLYNTPLTFGGGTKLEIK
IC50, pseudovirus neutralisation (CHO-ACE2 cells, luciferase) [1]: 4.9 ng/mL | Kd [2]: < 1 nM

B2: WCoVA7 (antibody, V domains shown)
VH: EVKLLESGGGLVQPGGSLKLSCAASGFDFSRYWMSWVRQAPGKGLEWIGEINPDSSTINYTPSLKDKFIISRDNAKNTLYLQMSKVRSEDTALYYCARIYYGSPGAMDYWGQGTSVTVSS
VL: SIVMTQTPKFLLVSAGDRVTITCKASQSVSNDVAWYQQKPGQSPKLLIYYASNRYTGVPDRFTGSGYGTDFTFTISTVQAEDLAVYFCQQDYFSPYTFGGGTKLEIK
IC50, pseudovirus neutralisation (CHO-ACE2 cells, luciferase) [1]: 2.6 ng/mL
